In the test the target is Mature human mitochondrial heat shock protein family D member 1 (HSPD1) (human), P10809. The experiment in a line: cryo-EM structure. As to conditions: remark: other sources report otherwise.

What is called stoichiometry N is the number of molecules, sites or subunits per partner or assembly.

B1: Mature human mitochondrial heat shock protein family D member 1 (HSPD1), P10809 27-573 (natural protein)
chain: AKDVKFGADARALMLQGVDLLADAVAVTMGPKGRTVIIEQSWGSPKVTKDGVTVAKSIDLKDKYKNIGAKLVQDVANNTNEEAGDGTTTATVLARSIAKEGFEKISKGANPVEIRRGVMLAVDAVIAELKKQSKPVTTPEEIAQVATISANGDKEIGNIISDAMKKVGRKGVITVKDGKTLNDELEIIEGMKFDRGYISPYFINTSKGQKCEFQDAYVLLSEKKISSIQSIVPALEIANAHRKPLVIIAEDVDGEALSTLVLNRLKVGLQVVAVKAPGFGDNRKNQLKDMAIATGGAVFGEEGLTLNLEDVQPHDLGKVGEVIVTKDDAMLLKGKGDKAQIEKRIQEIIEQLDVTTSEYEKEKLNERLAKLSDGVAVLKVGGTSDVEVNEKKDRVTDALNATRAAVEEGIVLGGGCALLRCIPALDSLTPANEDQKIGIEIIKRTLKIPAMTIAKNAGVEGSLIVEKIMQSSSEVGYDAMAGDFVNMVEKGIIDPTKVVRTALLDAAGVASLLTTAEVVVTEIPKEEKDPGMGAMGGMGGGMGGGMF
The molecule B1 returned a stoichiometry N of 7.

Values taken from publication doi:10.1101/2020.05.14.095372.
